Experimental data reported in the supplement of paper PMC9112550, “Optimization of the antimicrobial peptide Bac7 by deep mutational scanning” (BMC Biology, 2022).

test system: Escherichia coli TOP10; assay: shrunken log2 fold change of peptide-encoding DNA abundance (4.5 h post-induction vs induction); higher = less antimicrobial activity (less host growth inhibition); settings: time post-induction: 4.5 h; library: site-saturation at positions 5, 18, 19, 20
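Note: peptides expressed intracellularly from a pBAD plasmid library in pooled LB shake-flask culture, induced with 0.3% L-arabinose, DNA abundance read by NGS, three biological replicates, DESeq2 with apeglm shrinkage.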

Row | Sequence | shrunken log2 fold change
1 | RRIRMRPPRLPRPRPRPRCKPRP | 0.198
2 | RRIRHRPPRLPRPRPRPWPHPRP | -0.0305
3 | RRIRHRPPRLPRPRPRPTMNPRP | -0.173
4 | RRIRLRPPRLPRPRPRPEEWPRP | 0.119
5 | RRIRIRPPRLPRPRPRPMVWPRP | 0.0906
6 | RRIRKRPPRLPRPRPRPSCYPRP | -0.0656
7 | RRIRPRPPRLPRPRPRPTNYPRP | -0.542
8 | RRIRTRPPRLPRPRPRPDQRPRP | -0.0808
9 | RRIRHRPPRLPRPRPRPGKIPRP | -0.769
10 | RRIRPRPPRLPRPRPRPWRIPRP | -0.0585
11 | RRIRWRPPRLPRPRPRPLNCPRP | -0.0452
12 | RRIRHRPPRLPRPRPRPPMCPRP | -0.00483
13 | RRIRDRPPRLPRPRPRPIGYPRP | -0.174
14 | RRIRHRPPRLPRPRPRPMTVPRP | 0.055
15 | RRIRYRPPRLPRPRPRPLMHPRP | -1.02
16 | RRIRGRPPRLPRPRPRPRYQPRP | 0.615
17 | RRIRERPPRLPRPRPRPMMHPRP | 0.0413
18 | RRIRLRPPRLPRPRPRPDYMPRP | -0.548
19 | RRIRCRPPRLPRPRPRPPDDPRP | 0.523
20 | RRIRWRPPRLPRPRPRPCWGPRP | -0.122
21 | RRIRERPPRLPRPRPRPMLLPRP | -0.166
22 | RRIRCRPPRLPRPRPRPQNGPRP | 0.0924
23 | RRIRARPPRLPRPRPRPYNHPRP | -0.402
24 | RRIRFRPPRLPRPRPRPEAAPRP | 0.965
25 | RRIRGRPPRLPRPRPRPQLNPRP | 0.368

Row | Sequence | shrunken log2 fold change
26 | RRIRMRPPRLPRPRPRPTFGPRP | 0.374
27 | RRIRGRPPRLPRPRPRPRIHPRP | 0.273
28 | RRIRARPPRLPRPRPRPDSYPRP | -0.111
29 | RRIRGRPPRLPRPRPRPAITPRP | 0.721
30 | RRIRKRPPRLPRPRPRPCKEPRP | -0.0743
31 | RRIRWRPPRLPRPRPRPVSPPRP | 0.175
32 | RRIRSRPPRLPRPRPRPLMMPRP | -0.0355
33 | RRIRIRPPRLPRPRPRPTYCPRP | -0.214
34 | RRIRMRPPRLPRPRPRPGHVPRP | 0.329
35 | RRIRNRPPRLPRPRPRPFEIPRP | -0.0195
36 | RRIRGRPPRLPRPRPRPTTKPRP | 1
37 | RRIRNRPPRLPRPRPRPLWRPRP | 0.179
38 | RRIRGRPPRLPRPRPRPGILPRP | 0.335
39 | RRIRRRPPRLPRPRPRPIRQPRP | 0.00198
40 | RRIRLRPPRLPRPRPRPWIDPRP | -0.0305
41 | RRIRPRPPRLPRPRPRPLQAPRP | 0.496
42 | RRIRVRPPRLPRPRPRPGLCPRP | 0.0795
43 | RRIRERPPRLPRPRPRPPKEPRP | 0.0608
44 | RRIRRRPPRLPRPRPRPWKCPRP | -0.0487
45 | RRIRMRPPRLPRPRPRPDPTPRP | 0.0984
46 | RRIRFRPPRLPRPRPRPYAQPRP | -0.533
47 | RRIRHRPPRLPRPRPRPGWRPRP | 0.232
48 | RRIRERPPRLPRPRPRPHRAPRP | -0.0349
49 | RRIRTRPPRLPRPRPRPGMVPRP | 0.279
50 | RRIRSRPPRLPRPRPRPEAPPRP | 0.67

Row | Sequence | shrunken log2 fold change
51 | RRIRRRPPRLPRPRPRPIAFPRP | -0.0124
52 | RRIRMRPPRLPRPRPRPAERPRP | 0.385
53 | RRIRIRPPRLPRPRPRPVAWPRP | -0.0525
54 | RRIRYRPPRLPRPRPRPDNAPRP | -0.0635
55 | RRIRCRPPRLPRPRPRPMTSPRP | -0.0603
56 | RRIRWRPPRLPRPRPRPPTEPRP | 0.597
57 | RRIRNRPPRLPRPRPRPIEVPRP | 0.0112
58 | RRIRMRPPRLPRPRPRPDKKPRP | -0.0148
59 | RRIRRRPPRLPRPRPRPNFDPRP | -0.102
60 | RRIRMRPPRLPRPRPRPYYDPRP | 0.000459
61 | RRIRNRPPRLPRPRPRPEYEPRP | -0.156
62 | RRIRPRPPRLPRPRPRPDNYPRP | -0.496
63 | RRIRMRPPRLPRPRPRPKYTPRP | 0.169
64 | RRIRNRPPRLPRPRPRPYHQPRP | -0.308
65 | RRIRERPPRLPRPRPRPCFNPRP | -0.324
66 | RRIRARPPRLPRPRPRPDTGPRP | -0.0932
67 | RRIRIRPPRLPRPRPRPWNHPRP | 0.0112
68 | RRIRVRPPRLPRPRPRPVPQPRP | 0.324
69 | RRIRHRPPRLPRPRPRPEGIPRP | 0.0992
70 | RRIRTRPPRLPRPRPRPGINPRP | -0.324
71 | RRIRFRPPRLPRPRPRPSASPRP | 0.0552
72 | RRIRMRPPRLPRPRPRPCVEPRP | 0.755
73 | RRIRERPPRLPRPRPRPEWEPRP | -0.0115
74 | RRIRVRPPRLPRPRPRPFHWPRP | -0.0122
75 | RRIRERPPRLPRPRPRPKYIPRP | -0.0434

Row | Sequence | shrunken log2 fold change
76 | RRIRFRPPRLPRPRPRPDRQPRP | 0.0398
77 | RRIRNRPPRLPRPRPRPPGIPRP | -0.0351
78 | RRIRTRPPRLPRPRPRPFVLPRP | -0.296
79 | RRIRARPPRLPRPRPRPGPHPRP | 0.568
80 | RRIRSRPPRLPRPRPRPPIQPRP | 0.0395
81 | RRIRNRPPRLPRPRPRPNPGPRP | 0.118
82 | RRIRQRPPRLPRPRPRPCASPRP | -0.0156
83 | RRIRWRPPRLPRPRPRPMGHPRP | -0.116
84 | RRIRLRPPRLPRPRPRPRPRPRP | 0.823
85 | RRIRMRPPRLPRPRPRPYYYPRP | -0.304
86 | RRIRLRPPRLPRPRPRPYGAPRP | -0.0327
87 | RRIRLRPPRLPRPRPRPGQWPRP | 0.17
88 | RRIRLRPPRLPRPRPRPCDTPRP | -0.131
89 | RRIRYRPPRLPRPRPRPRAAPRP | -0.0447
90 | RRIRMRPPRLPRPRPRPKGTPRP | 1.69
91 | RRIRPRPPRLPRPRPRPCHAPRP | -0.242
92 | RRIRDRPPRLPRPRPRPMTVPRP | 0.047
93 | RRIRCRPPRLPRPRPRPLCPPRP | -0.254
94 | RRIRLRPPRLPRPRPRPTMYPRP | 0.163
95 | RRIRNRPPRLPRPRPRPKKGPRP | 0.0558
96 | RRIRFRPPRLPRPRPRPSTFPRP | -0.945
97 | RRIRLRPPRLPRPRPRPKYQPRP | -0.141
98 | RRIRFRPPRLPRPRPRPGRMPRP | 0.0574
99 | RRIRCRPPRLPRPRPRPSVDPRP | -0.139
100 | RRIRGRPPRLPRPRPRPQCIPRP | 0.438

Row | Sequence | shrunken log2 fold change
101 | RRIRRRPPRLPRPRPRPHAVPRP | 0.251
102 | RRIRRRPPRLPRPRPRPDEHPRP | -0.0368
103 | RRIRKRPPRLPRPRPRPAGKPRP | 0.582
104 | RRIRCRPPRLPRPRPRPQMVPRP | 0.151
105 | RRIRRRPPRLPRPRPRPRRGPRP | 0.788
106 | RRIRQRPPRLPRPRPRPHKPPRP | -0.0272
107 | RRIRYRPPRLPRPRPRPTADPRP | -0.119
108 | RRIRLRPPRLPRPRPRPDIQPRP | 0.0103
109 | RRIRPRPPRLPRPRPRPDDAPRP | -0.0674
110 | RRIRMRPPRLPRPRPRPAPQPRP | 1.77
111 | RRIRMRPPRLPRPRPRPKLLPRP | 0.0392
112 | RRIRCRPPRLPRPRPRPDRAPRP | 0.0901
113 | RRIRNRPPRLPRPRPRPVNKPRP | -0.19
114 | RRIRARPPRLPRPRPRPPMFPRP | 0.283
115 | RRIRFRPPRLPRPRPRPMHVPRP | -0.0102
116 | RRIRARPPRLPRPRPRPNWIPRP | 0.00102
117 | RRIRDRPPRLPRPRPRPQACPRP | 0.303
118 | RRIRCRPPRLPRPRPRPWIVPRP | -0.0435
119 | RRIRMRPPRLPRPRPRPTTFPRP | 0.00693
120 | RRIRIRPPRLPRPRPRPNSPPRP | 0.00971
121 | RRIRSRPPRLPRPRPRPYCCPRP | -0.375
122 | RRIRARPPRLPRPRPRPDLGPRP | 0.438
123 | RRIRDRPPRLPRPRPRPYRFPRP | -0.0178
124 | RRIRDRPPRLPRPRPRPTVWPRP | 0.527
125 | RRIRKRPPRLPRPRPRPSLRPRP | -0.278

Row | Sequence | shrunken log2 fold change
126 | RRIRMRPPRLPRPRPRPPEHPRP | 0.353
127 | RRIRWRPPRLPRPRPRPQPPPRP | 0.603
128 | RRIRRRPPRLPRPRPRPVWEPRP | 0.00461
129 | RRIRCRPPRLPRPRPRPFNFPRP | -0.813
130 | RRIRTRPPRLPRPRPRPMLHPRP | 0.111
131 | RRIRNRPPRLPRPRPRPDEDPRP | 0.421
132 | RRIRIRPPRLPRPRPRPPHQPRP | 0.000816
133 | RRIRKRPPRLPRPRPRPAKHPRP | 0.0854
134 | RRIRNRPPRLPRPRPRPTISPRP | -0.969
135 | RRIRHRPPRLPRPRPRPKIHPRP | -0.393
136 | RRIRPRPPRLPRPRPRPRPGPRP | 0.555
137 | RRIRNRPPRLPRPRPRPTGIPRP | 0.0288
138 | RRIRDRPPRLPRPRPRPAWKPRP | 0.0693
139 | RRIRGRPPRLPRPRPRPQMPPRP | 0.225
140 | RRIRVRPPRLPRPRPRPDVTPRP | -0.0394
141 | RRIRRRPPRLPRPRPRPFNYPRP | -0.0716
142 | RRIRHRPPRLPRPRPRPAHHPRP | 0.178
143 | RRIRCRPPRLPRPRPRPMAQPRP | -0.0404
144 | RRIRFRPPRLPRPRPRPLYDPRP | -0.358
145 | RRIRGRPPRLPRPRPRPRSNPRP | 0.363
146 | RRIRMRPPRLPRPRPRPSHKPRP | -0.183
147 | RRIRHRPPRLPRPRPRPYLGPRP | -0.403
148 | RRIRYRPPRLPRPRPRPEDTPRP | -0.00443
149 | RRIRKRPPRLPRPRPRPTMGPRP | -0.0139
150 | RRIRHRPPRLPRPRPRPKCRPRP | -0.163
